# Assay results reported in patent publication US10905748B2, “Ovotransferrin treatment for the reproductive tract” (Vets Plus, Inc., priority 2018, dated 2021).
# B1: ovotransferrin (protein, UniProt P02789 20-705, looked up)
# Ovotransferrin: APPKSVIRWCTISSPEEKKCNNLRDLTQQERISLTCVQKATYLDCIKAIANNEADAISLDGGQAFEAGLAPYKLKPIAAEVYEHTEGSTTSYYAVAVVKKGTEFTVNDLQGKTSCHTGLGRSAGWNIPIGTLLHRGAIEWEGIESGSVEQAVAKFFSASCVPGATIEQKLCRQCKGDPKTKCARNAPYSGYSGAFHCLKDGKGDVAFVKHTTVNENAPDQKDEYELLCLDGSRQPVDNYKTCNWARVAAHAVVARDDNKVEDIWSFLSKAQSDFGVDTKSDFHLFGPPGKKDPVLKDLLFKDSAIMLKRVPSLMDSQLYLGFEYYSAIQSMRKDQLTPSPRENRIQWCAVGKDEKSKCDRWSVVSNGDVECTVVDETKDCIIKIMKGEADAVALDGGLVYTAGVCGLVPVMAERYDDESQCSKTDERPASYFAVAVARKDSNVNWNNLKGKKSCHTAVGRTAGWVIPMGLIHNRTGTCNFDEYFSEGCAPGSPPNSRLCQLCQGSGGIPPEKCVASSHEKYFGYTGALRCLVEKGDVAFIQHSTVEENTGGKNKADWAKNLQMDDFELLCTDGRRANVMDYRECNLAEVPTHAVVVRPEKANKIRDLLERQEKRFGVNGSEKSKFMMFESQNKDLLFKDLTKCLFKVREGTTYKEFLGDKFYTVISSLKTCNPSDILQMCSFLEGK
# notes: 12 to 13% of total egg white protein
# Legend:
# [1] = tested on: Cows with clinical endometritis; assay: Intrauterine infusion of ovotransferrin solution in cows with clinical endometritis; format: in vivo, cow
# Source text: (§1) Cows with clinical endometritis (n=4) were identified based on the clinical signs, rectal temperature, score of mucus characteristics, total polymorph numbers, pH of uterine discharge, uterine swab analysis, and bacterial culture, along with healthy cows (control, n=4). Two hundred ml of a 5% ovotransferrin solution of the invention were infused intrauterine with a special pipette attached to a pump in the treatment group. Seven days later, all the above parameters were reexamined. Total number of polymorph in uterine discharge was counted using a hemocytometer, stained with Giemsa and Gram stain.
# as §1, with “(n=3)” for “(n=4)”, “n=3.” for “n=4).”, “reexamined.” for “reexamined. Total number of polymorph in uterine discharge was counted using a hemocytometer, stained with Giemsa and Gram stain.”
# as §1, with “reexamined. Mucus score was 6 times higher” for “reexamined. Total number of polymorph”, “in metritis affected cows than control values. […] This indicates the invention” for “in uterine discharge”, “was efficacious for treatment metritis in cows.” for “was counted using a hemocytometer, stained with Giemsa and Gram stain.”
# as §1, with “reexamined.” for “reexamined. Total number of polymorph in uterine discharge was counted using a hemocytometer, stained with Giemsa and Gram stain.”
# [2] = tested on: infectious metritis in cows; assay: Clinical trial of ovotransferrin bolus to prevent infectious metritis in postpartum cows; format: in vivo, cow; settings: examined after 30 days
# Description: (§2) A clinical trial was conducted to examine efficacy of the invention to prevent infectious metritis in cows. 10 gram of purified Ovotransferrin was mixed with 10 grams of binding agent to create a 20 gram total bolus with dimensions of 2 cm wide and 6 cm long. For N=5 cows from a herd known to have the standard metritis rate were selected that were 3 hours postpartum. Two boluses were inserted into the uterus and allowed to dissolve. The cows were monitor daily for any obvious signs of metritis. After 30 days, the cows were examined in detail for clinical signs of metritis. […] It would be expected that at least one of the cows of this group would have had metritis 10-12 days without the use of the invention.
# as §2, with “A single bolus was” for “Two boluses were”
# as §2, with “cows. 2.5” for “cows. 10”, “with 17.5” for “with 10”, “For N=7” for “For N=5”
# A clinical trial was conducted to examine efficacy of the invention to prevent infectious metritis in cows. 2.5 gram of purified Ovotransferrin was mixed with 17.5 grams of binding agent to create a 20 gram total bolus with dimensions of 2 cm wide and 6 cm long. For N=7 cows from a herd known to have the standard metritis rate were selected that were 3 hours postpartum. A single bolus was inserted into the uterus and allowed to dissolve. The cows were monitor daily for any obvious signs of metritis. After 30 days, the cows were examined in detail for clinical signs of metritis. […]
# [3] = tested on: metritis causing bacteria; assay: Agar well zone of inhibition on bacteria cultured from metritis discharge; format: cell-based, bacteria from the discharge of a cow diagnosed with metritis; settings: 24 hour diffusion at 37° C.
# Description: A cow that was diagnosed with metritis, as evidenced by elevated temperature, elevated total leukocyte count, raised tails, and foul smelling discharge, had the discharge cultured onto blood agar plates. Bacteria colonies with different morphology from the metritis discharge that grew were selected and placed into 20 ml liquid nutrient broth in culture tubes at a defined amount and incubated overnight at 37° C. The bacteria in the liquid nutrient broth was then used to create agar plates by mixing 1 ml of nutrient broth containing bacteria with 15 ml of warm agar and poured into petri dishes and incubated for 24-48 hrs. at 37° C. Then, holes were punched into the agar and a dose response of previously purified ovotransferrin at 0%, 10% and 25% w/v in sterile water was placed in the holes. The plates were allowed to diffuse for 24 hour at 37° C. to check for zone of inhibition. Zones of inhibition were visualized by clearings in the agar where no bacteria grew. […] This is consistent with ovotransferrin in killing the bacteria that cause metritis. It was concluded that ovotransferrin of the invention is able to inhibit growth of the metritis causing bacteria in a dose dependent manner.
molecule,measurement,setting,value
B1,Mean pH of uterine discharge,"[1]; one week after intrauterine infusion of 200 ml 5% solution, 8.8 before treatment, healthy control 6.8, n=3, p<0.05, FIG. 2",7.0
same,Rectal temperature,"[1]; one week after intrauterine infusion of 200 ml 5% solution, >40° C. before treatment, n=4, FIG. 1",38.5 °C
same,Mucus score,"[1]; seven days after intrauterine infusion of 200 ml 5% solution, 6 times control before treatment, n=4, FIG. 3",statistically significant decrease
same,Total number of polymorph in uterine discharge,"[1]; seven days after intrauterine infusion of 200 ml 5% solution, more than 70 times control before treatment, n=4, FIG. 4","statistically significantly (p<0.01) reduced (2 and 4 times higher, respectively, compared with control)"
same,clinical signs of metritis,"[2]; single bolus of 2.5 g ovotransferrin in uterus 3 hours postpartum, N=7",None of the cows had any signs of metritis
same,clinical signs of metritis,"[2]; single bolus of 10 g ovotransferrin in uterus 3 hours postpartum, N=5",None of the cows had any signs of metritis
same,clinical signs of metritis,"[2]; two boluses of 2.5 g ovotransferrin (5 grams) in uterus 3 hours postpartum, N=7",None of the cows had any signs of metritis
same,clinical signs of metritis,"[2]; two boluses of 10 g ovotransferrin (20 grams) in uterus 3 hours postpartum, N=5",None of the cows had any signs of metritis
same,zone of inhibition,[3]; 10% w/v ovotransferrin in sterile water in agar wells,a zone of inhibition was seen
same,zone of inhibition,[3]; 25% w/v ovotransferrin in sterile water in agar wells,a larger zone
